Measured values as given in patent US20210009673A1, “METHODS FOR REGULATING BREAST CANCERS” (priority 2018, published 2021).

Tested on: β-catenin
Assay: ubiquitination of β-catenin in HUVS cells (Rad23 capture)
Type: cell-based, human
Conditions: 15 and 30 minutes after stimulation with PTN
Experimental: FIG. 12: FIG. 12 illustrates: human umbilical vein stromal cells not stimulated (lane 1) or stimulated with 50 ng/ml of PTN for 15 (lane 2), or 30 minutes (lane 3) were used to prepare cell lysates that were incubated with Rad23-conjugated agarose beads to pull-down ubiquitinated proteins and analyzed in Western-blots probed with anti-β-catenin antibodies (upper panel) and reprobed with anti-ubiquitin antibodies (lower panel). Cells pre-incubated with LY294002 were stimulated with PTN for 15 minutes (lane 4). Cells pre-incubated with lactacystin were stimulated with PTN for 15 minutes (lane 5).
Human umbilical vein stromal cells were lysed in a buffer prepared with 50 mM Tris, pH 7.2, 150 mM NaCl pH 7.5, 1% NP40, 0.25% sodium deoxicholate, Complete EDTA-free Protease Inhibitor Cocktail and 2 mM sodium orthovanadate. […] The beads were washed 4 times with lysis buffer and analyzed using Western blots.
β-catenin is rapidly degraded through the ubiquitin proteasome proteolytic pathway, thereby setting steady state levels of β-catenin by balancing its degradation with new synthesis of this key regulatory protein. […] Proteins captured with Rad23 Sepharose were eluted and analyzed in Western blots probed with anti-β-catenin antibodies (FIG. 12, upper panel) and the blots were reprobed with anti-ubiquitin antibodies (FIG. 12, lower panel). […]

B1: pleiotrophin (protein, UniProt P21246 33-168, looked up)
Pleiotrophin: GKKEKPEKKVKKSDCGEWQWSVCVPTSGDCGLGTREGTRTGAECKQTMKTQRCKIPCNWKKQFGAECKYQFQAWGECDLNTALKTRTGSLKRALHNAECQKTVTISKPCGKLTKPKPQAESKKKKKEGKKQEKMLD
- ubiquitinated β-catenin: decreased sharply
